# Where no end group is shown, it is not given here. [ ]: non-standard residue; d: D form. GABA = NCCCC(=O)O; βAla = NCCC(=O)O
# How the values were obtained:
# [1] = Recovery time of mice after intravenous injection of peptide-PMO-CAG7; assay type: in vivo, C57BL6 mice
# Protocol: Animal experiments and ASO injections. Experiments were carried out in the University of Oxford according to UK legislation. The intravenous injections in HSA-LR C57BL/6 mice were performed by single or repeated administrations via the tail vein. Doses of 30, 12.5, 7.5 and 5 mg/kg of peptide-PMO-CAG7 (SEQ ID NO: 81) were diluted in 0.9% saline and given at a volume of 5-6 μL/g of body weight. KIM-1 levels in C57BL6 female mice measured by ELISA (R&D cat #MKM100) with samples diluted to fit within standard curve. Values were normalised to urinary creatinine levels (Harwell) to account for urine protein concentration.
# exon skipping = details: in a conjugate with a therapeutic molecule; cited from earlier work
# [2] = CPP carrier; cited from earlier work
# human hepatocytes = experiment: Hepatocyte cell viability; assay type: cell-based; details: 40 μM
# Protocol: Immortalized myoblasts from healthy individual or DM1 patient with 2600 CTG repeats were cultivated in a growth medium consisting of a mix of M199:DMEM (1:4 ratio; Life technologies) supplemented with 20% FBS (Life technologies), 50 μg/ml gentamycin (Life technologies), 25 μg/ml fetuin, 0.5 ng/ml bFGF, 5 ng/ml EGF and 0.2 μg/ml dexamethasone (Sigma-Aldrich). Myogenic differentiation was induced by switching confluent cell cultures to DMEM medium supplemented with 5 μg/ml insulin (Sigma-Aldrich) for myoblasts. For treatment, WT or DM1 cells are differentiated for 4 days. Then, medium was changed with fresh differentiation medium with peptide-PMOs at a 1, 2, 5 10, 20 or 40 μM concentration. Cells were harvested for analysis 48 h after treatment. Cell viability was quantified in after 2 days of transfection of peptide-PMOs at 40 μM in human hepatocytes or at a 1, 2, 5 10, 20 or 40 μM concentration in human myoblasts using a fluorescent-based assay (Promega).
substance,measurement,setting,value
Ac-RBRRBRFQILYBRBR-B [DPEP1.9],"recovery time after injection, time AV ± SD","[1]; 7.5 mg/kg, HSA-LR mouse, 8-12 weeks",0 min
same,"recovery time after injection, time AV ± SD","[1]; 30 mg/kg, HSA-LR mouse, 30 weeks",>60 min
same,"recovery time after injection, time AV ± SD","[1]; 4× 7.5 mg/kg repeated injections, HSA-LR mouse, 8-12 weeks",0 min
same,"recovery time after injection, time AV ± SD","[1]; 6× 5 mg/kg repeated injections, HSA-LR mouse, 8-12 weeks",0 min
"Ac-RBRRBRFQILYBRBR-E (Ac-R[βAla]RR[βAla]RFQILY[βAla]R[βAla]RE; also: Glu linker to [CAG]7 PMO, attachment not given here) [DPEP1.9b]","recovery time after injection, time AV ± SD","[1]; 30 mg/kg, WT mouse, 8-12 weeks",15 min
Ac-RBRRBRRFQILYRBHBH-Ab (Ac-R[βAla]RR[βAla]RRFQILYR[βAla]H[βAla]H-{GABA-(CAG)7 PMO}) [DPEP3.1a],"recovery time after injection, time AV ± SD","[1]; 30 mg/kg, WT mouse, 8-12 weeks",10 min
Ac-RRRRRR-(G) (Ac-RRRRRRG; also: conjugated therapeutic molecule via glycine linker) [R6Gly],efficacy in inducing exon skipping,exon skipping,reduced efficacy
same,toxicity,[2],reduced toxicity
"Ac-RXRRBRRXR-YQFLI-RXRBRXR-(B) [pip6a, reference compound]","recovery time after injection, time AV ± SD","[1]; 12.5 mg/kg, HSA-LR mouse, 8-12 weeks",>60 min
same,percentage hepatocyte cell viability,human hepatocytes,cell mortality
